Measurements: the DeepSol protein solubility set

Assay: soluble on expression in E. coli; label from the status in PepcDB or PDB records

Sequence	soluble on expression in E. coli
IFNGRPAQKGTTPWIAMLSHLNGQPFCGGSLLGSSWIVTAAHCLHQSLDPKDPTLRDSDLLSPSDFKIILGKHWRLRSDENEQHLGVKHTTLHPQYDPNTFENDVALVELLESPVLNAFVMPICLPEGPQQEGAMVIVSGWGKQFLQRFPETLMEIEIPIVDHSTCQKAYAPLKKKVTRDMICAGEKEGGKDACAGDSGGPMVTLNRERGQWYLVGTVSWGDDCGKKDRYGVYSYIHHNKDWIQRVTGVRN	soluble
MGSDKIHHHHHHVTSEIKRGVSLYSYQNETFQGKMTLEDCIRTSAELGAKGIEIIGEQTFWGWPECGVAQADVDTWHRLIKQYDCTPVSHDFMLDYKRYKGREMPFDEQVASVKNDVDFGARLGMKYIRALVSIAPEVLVAAAPYAEEKGIKILIEVHAPLHFDHPWIIRHAEAFEKSGSDALGFLPDMGMFLFAFPPVWKEKFLRIGVPKNIADYVEKAYEDRVLSEYVILNVQQMGGTGPAIAMAETLRHNAAFEPRRMLDYMHRIHNVHGKFYQMNEDYVEPSIPYDEIVKVLKQGGFNGYICSEYEGNRWIEDAEEPDSVEQVRRQQVMLARLLGETEVPTIQTSPTASAMAEAAA	not soluble
MGSDKIHHHHHHMFLSELYRYPVKSGQAQSLKASPVGLLGLQGDRRWMVVEEENGRFLTQRAWPQLGQIDASDDDSGQLLLQAPGQAPLRVPVPPADDALRGVTIWRDTLRVPDAGDAAAAWLSELLGKAVRLVHCPEQRARYLPNGYGLNSDRAAFPDGFPLLLIGQGSLDELNRRIGRPMSMRRFRPNLVVQGAEPFAEDGWKRIRIGSLVFRVLKPSVRCIFTTIDPVTGERSADREPMATLKTFREKEGDVLFGQNLAVDGSGWLEVGMEVEILE	not soluble
PSVQVTDGQINGESVRFIAVVPDANNHYPRAAGGEVGLLEGWTLAKVVNETIAADADRPVKRPIVAVIDVPSQAYGRREEAFGIHQALAGAAGAYAKARLAGHPVIGLIVGKAMSGAFLAHGYQANRLIAFNDSGVLVHAMGKASAARITLRTVEALEKLAATIPPMAY	not soluble
MSIEIKTNSVEPIRHTYGHIARRFGDKPATRYQEASYDIEAKTNFHYRPQWDSEHTLNDPTRTAIRMEDWCAVSDPRQFYYGAYVGNRAKMQESAETSFGFCEKRNLLTRLSEETQKQLLRLLVPLRHVELGANMNNAKIAGDATATTVSQMHIYTGMDRLGIGQYLSRIALMIDGSTGAALDESKAYWMDDEMWQPMRKLVEDTLVVDDWFELTLVQNILIDGMMYPLVYDKMDQWFESQGAEDVSMLTEFMRDWYKESLRWTNAMMKAVAGESETNRELLQKWIDHWEPQAYEALKPLAEASVGIDGLNEARAELSARLKKFELQSRGVSA	soluble
MAHHHHHHMNINKILFSKVGEVVKNGNGGMNMQQGASQLLSGKKLIYISKPTHGGFIYWKCRELIHTIKKKTKRCARYLDINHDFSRAALVGVPKTSYDPKNNIFYIQMDNEEWAGNFYKNGPSGVLMWGVMFFAKVCKMGKNALHTIRAAPFGRFAE	not soluble
HMSFSHVCQVGDPVLRGVAAPVERAQLGGPELQRLTQRLVQVMRRRRCVGLSAPQLGVPRQVLALELPEALCRECPPRQRALRQMEPFPLRVFVNPSLRVLDSRLVTFPEGCESVAGFLACVPRFQAVQISGLDPNGEQVVWQASGWAARIIQHEMDHLQGCLFIDKMDSRTFTNVYWMKVND	soluble
MNDLKSKSNIKLMKRVLTTYELRKYLKKYFCLTLDNYLVLAYLDVFKNDEGKYFMRDIISYIGIDQSRIVKSVKDLSKKGYLNKCRDPHDSRNVIIVVSVKQHNYIKNLLSEININET	not soluble
MSLNQGEQLPGNYRVEIYLNGEKVDVGEFPFHRPESPEEKELVPCLTVDDLIHYGIKIDKSSSDTDNKKNQCFKWNSIEGLKVNYDFDSQRVQITVPQLYLQDKKSSLAPVSLWNEGVAAFRMVYQTNIDISKQNDNQSTTRNSRYGRFTPGFNLGAWRFRSSVTWSKELGQSERWQRGYMWFERGINAIKSRLTLGESYTSSEVFDSIPFRGGMLATDDAMTPPEDSYYTPVVHGIAQSEAQVIIKQNGQIIFTRSVPPGPFALDNLPTLAVGGELDVTVRESNGEEQYFSVPFQTPAIALHEGYFKYSVMGGNIKKKEGHHHHHH	not soluble
MGSDKIHHHHHHMTKLHYIRNKDCNMKEGLKLNKGKLIAQGKTSEVFEYGQDKILKLFRKDLPEKNIENEYEVSFNLSKKMKLVPKVYDLVEVDDRKGIIYEKVNGTTMMEVISSKPWKVKKEAQRLAELHEAIQKPVDFELPDYKTTLKENISKTELLEEDIKKRLYDYIDELKDDDLLCHGDFHPDNVLITEEGEVIIDWMTASKGSRIADIARTSVMLKFGASPVKRSAEKKIIKFVRNRFYSGYIKHYMKITGINKEQIEEWELPIAAARLNEWLPKSEKVDLLKFIDMKMK	not soluble
MGSDKIHHHHHHMAKQVVKRTIIGSITNHQQVQDDLDSLGFAASKLWNVARWTTGRIWNETGHIPEDGELKSYLKSHERYSDLHSQSSQRVLEELSEAFTGWYGKRRNGDSKANPPAYRKHNDEHPRSTLTFKGAGFKLDTTNGRLRLSKGENLKEYWSDFVLCDIQIRPDVDLSAIESVQQVRAVWNKQRNEWELHVVCNVTVDIPENSAEKTVGIDLGICNFAALAFENQESELYPLNCLKQDDYYYSKHIARCDDSSSEEATRLHAKKSNRRTHYFHTLSKHIVERCVDENVGVIAIGDLSGIREDEDGEMKDWGKHGNLDLHSWAFDRFTDMLEYKAEEVGISVKRVSEENTSKSCSSCGCERDTNRVERGLYVCNECELVANADVNGAENIRQQVSPNPRSEDRSNGWLAQPSTLLFDKETGVFAPQEQVVS	not soluble
GSPGIPMVAAHAAHSQSSAEWIACLDKRPLERSSEDVDIIFTRLKGVKAFEKFHPNLLRQICLCGYYENLEKGITLFRQGDIGTNWYAVLAGSLDVKVSETSSHQDAVTICTLGIGTAFGESILDNTPRHATIVTRESSELLRIEQEDFKALWEKYRQYMAGLLAPPYGVMETGSNNDRIPDKENVPSEKILRAGKILRIAILSRAPHMIRDRKYHLKTYRQCCVGTELVDWMIQQTSCVHSRTQAVGMWQVLLEDGVLNHVDQERHFQDKYLFYRFLDDEREDAPLPTEEEKKECDEELQDTMLLLSQMGPDAHMRMILRKPPGQRTVDDLEIIYDELLHIKALSHLSTTVKRELAGVLIFESHAKGGTVLFNQGEEGTSWYIILKGSVNVVIYGKGVVCTLHEGDDFGKLALVNDAPRAASIVLREDNCHFLRVDKEDFNRILRDVEANTVRLKEHDQDVLVLEKVPAGNRAANQGNSQPQQKYTVMSGTPEKILEHFLETIRLEPSLNEATDSVLNDFVMMHCVFMPNTQLCPALVAHYHAQPSQGTEQERMDYALNNKRRVIRLVLQWAAMYGDLLQEDDVAMAFLEEFYVSVSDDARMMAAFKEQLPELEKIVKQISEDAKAPQKKHKVLLQQFNTGDERAQKRQPIRGSDEVLFKVYCIDHTYTTIRVPVAASVKEVISAVADKLGSGEGLIIVKMNSGGEKVVLKSNDVSVFTTLTINGRLFACPREQFDSLTPLPEQEGPTTGTVGTFELMSSKDLAYQMTTYDWELFNCVHELELIYHTFGRHNFKKTTANLDLFLRRFNEIQFWVVTEVCLCSQLSKRVQLLKKFIKIAAHCKEYKNLNSFFAIVMGLSNVAVSRLALTWEKLPSKFKKFYAEFESLMDPSRNHRAYRLTAAKLEPPLIPFMPLLIKDMTFTHEGNKTFIDNLVNFEKMRMIANTARTVRYYRSQPFNPDAAQANKNHQDVRSYVRQLNVIDNQRTLSQMSHRLEPRRP	soluble
MTLRYEIFPVTPFRQNCTLIWDDESGEAVLTDVGGDVPFLLQALANRKLTLTAIWLTHGHLDHAGGVVEMLKTHKVPVLGPHPDDEFLLQSLPQTTAQYGFPVSPAFAPNRWLEEGETLTVGRYAFQVLHIPGHTPGHIVFYCAEAELLIAGDVLFYETIGRTDFPRGNHADLINNIRNKLFTLPETVQVVAGHGRMTSIGHEKRHNPFF	not soluble
MGSDKIHHHHHHMTRLAIVRQKYNPAGGAERFVSRALAALRDKGELEVSLIARRWEPVEGVKAYQVDGPYLGNVWRDWSFARKARRIWLREGFDLVQSHERIPGCDVYRAGDGVHRRWLQLRRQGMSAWGRFVLWCNPYHHYIQRAESEMFHHPRLKRVICNSQMVKREIQQYFGLSDQQIVVIYNGVDLQSFHPGLRSEHRQAMRSQWGVPGDAPLLLYVGSGFERKGVARALKALQANPGAWLMVVGGDKRLARYRRLADELGVDARVVFAGAQGEVRPFYGMADAFILPTLYDPFPNVCVEALASGLPVLTTRQCGAAEFVRQGENGWVCDAFDEEALARSVAEWLSVSRNWPVLAEAARRSVEGLSLGAMAERMLNCYRDLLSVSAVA	not soluble
MSPVEAALETLAHTMGITVIETSKLGSTLNACFHPPTQTIFIKIGLDPVTRRCAIAHELGHAHYGHNCSTPGAERQADEWAAQQLLDVGDVEAVGLECEGSAAAMAAELGVTPHLLVLWMGMYERGRIQPEKRAC	not soluble
MGSDKIHHHHHHMRVNSQSNHDVSPAPSGVVLEAADPAELLVRAQKTLGLLSPLLSPLAQAFHDRGHRLYLVGGSVRDALLDELGHDLDCTTDARPEVVSAILEEYAPVVWDTGIEFGTVSAEKDGQQIEITTFRSDVYDGQSRNPEVQFGDTLEGDLIRRDFTVNAMAMEILPDGSMQFHDPVGGMNDLVAGLLDTPATPQQSFNDDPLRMLRAARFVSQLGFDLAPRVRHAMTEMADQITRITAERVQVELDKMICGKVPWDGIDVMVDTGLADIIYPEISALRLTQDEHHQHKDVYAHSLTVLRQAMDQEEDGPDVVLRWAALMHDCGKPDTREFSPEGRVSFHQHEIVGARLMRHRMRALKYSKHTIRDVSELIRLHMRFHGFSEGEWTDSAVRRYVTDAGDLLPRLHKLVRADCTTRNKKKAERLQKTYDHLEDRIADIAAKEDLAKVRPDLDGNEIMEILDIKAGPQVGQAWKFLKELRLERGPLEREDAILELKKWWYEQ	not soluble
MGSDKIHHHHHHMTLPATITHQEKLLTVDTTAHPFLKALGGHEGTDIFPLFMDPYNGLMVMRASFAPGLTLPLHFHTGTVHMYTISGCWYYTEYPGQKQTAGCYLYEPGGSIHQFNTPRDNEGQTEVIFMLSGCNVNFTQDGTYLGLSDAGVIKNWVDRAIREQDNGLRYIAAAVPTYAA	not soluble
MKRLNCRRKGIRVRILAIDTSNQTLSIAVCENQKILGSYTATVKRNHSLTLMPAIDYLMSQLNLAPTAIDRFVVAEGPGSYTGLRLGVTTAKTLAYTLKKELVGISSLQTLAANCVGQTGLIVPLFDARRKNVYAGAYRFVNGVWQNELPDQHISLRELLEQLKNEPNLFFVGEDVEKFTEEIAQIIPHGEICDVPQWQIPNAAVLAALGSVAEPVENVHGFLPAYLKKVEAEENWLKTHTPNGESYVEKLLEHHHHHH	not soluble
MGIKKKYGEGKMDIKPIRKKRVYQAIIEQIQQFIRQGQLKPGDKLPSERDLAEKFQVSRTTIKEAIAVMEAIGVLEIRPGVGTFVRETGNHFLDLNYIFGDDDTEIQELMEFRQAIEVEAAYYAAIRGTEDGKRKLTQLFSELEKEVMSGKLPAKSDFSFHMQISSMSQNALFLRIMEFISDKLFKSVTKNAVNTFAGAGDPVRVLQEHRAIYEAILSGDGVKARQAMRYHLESVIARYKGI	soluble
MSSAPPAPRVIAVVGPTAAGKSDLGVFLAQRLGGEVVNADSMQLYRGMDIGTAKLTPEERGGVPHHLLDIWDVTVTASVAEYQRLARERIDALLAEGRWPILVGGSGLYVRGAVDNLEFPGTDPGIRARLEEELELRGPGALHARLAVADPEAARAILPSNGRRIVRALEVIEITGRPFTANLPGHDSVYDTVQIGVDVARPELHERIALRVDRMWEAGLVDEVRALEAQGLREGRTASRALGYQQVLAALAGECTLDEARAETVRATKRFARRQDSWFRRDPRVHWLSGGVADRTELPRLALSLVERPVTALEHHHHHH	not soluble
